# Measured values: US20120263732A1, “CD40 ANTIBODY FORMULATION AND METHODS” (PFIZER INC., priority 2003, published 2012)
# Like-named read-outs stand apart in the source and are kept apart here.
# Assays:
# [1] = Multiple-dose IV pharmacokinetics; type: in vivo, cynomolgus monkeys
# Method: In a multiple-dose study, 21.4.1 was administered intravenously to cynomolgus monkeys (2/sex/dose) at doses of 0.3, 1.0, and 10 mg/kg on Days 1, 3, 5, 7, and 9 for 5 total doses. Blood was collected on Days 1 and 9 before dosing and 0.5, 6, and 24 hours after dosing and before dosing and 0.5 hour after dosing on Day 5 to measure serum drug concentrations. Systemic exposure to 21.4.1, as assessed by mean Cmax and mean AUG(0-24), increased with increasing dose from 0.3 to 10 mg/kg on both Day 1 and Day 9 (Table 2). Similar exposures (mean Cmax and mean AUC) were observed on Days 1 and 9 in the 0.3 and 1 mg/kg dose groups. […] Gender-related differences in exposure were not observed.
# [2] = Serum pharmacokinetics after one injection in SCID-beige mice
# B cell lymphoma Daudi = experiment: Mortality in systemic Daudi B cell lymphoma model; type: in vivo, human tumor in SCID-beige mice; conditions: Daudi IV; single IP injection; monitored for 58 days
# Method: The ability of an anti-CD40 antibody according to the invention (21.4.1) to delay mortality in a CD40(+) systemic tumor model using a B cell lymphoma was assessed.
# SCID-beige mice were injected IV with the B cell lymphoma Daudi (ATCC CCL-213). 21.4.1 was administered as a single injection (IP) at the time of tumor injection. Mortality was monitored for 58 days.
# [3] = test system: lymph node cells obtained from cancer patients; experiment: Proliferation of cancer patients' lymph node cells stimulated with autologous tumor cells (3H-thymidine); type: cell-based, human; conditions: antibody 1 μg/mL (6.7 nM); 3H-thymidine 96 hours later
# Text: Effects of a human anti-CD40 antibody (21.4.1) on lymph node cells obtained from cancer patients stimulated with autologous tumor cells was examined.
# Lymph node cells and tumors were collected from patients with renal cell carcinoma, non-small cell lung cancer, transitional cell carcinoma of the bladder, colon cancer, prostate cancer, and head and neck cancer. The lymph node cells were placed into culture together with irradiated collagenase treated tumors (recovered from the same patient) in the presence or absence of 21.4.1 (1 μg/mL; 6.7 nM). Proliferation was assessed using ^3H-thymidine 96 hours later. The number of INFγ producing cells was assessed by ELISPOT, following restimulation.
# [4] = cynomolgus monkey, in vivo
# Method: The pharmacokinetic properties of an anti-CD40 antibody (21.4.1) were examined in cynomolgus monkeys following intravenous (IV) administration of a single dose of 1, 3, 5 or 10 mg/kg.
# cynomolgus B-cells = experiment: Pharmacodynamics: B-cell surface marker upregulation after IV dosing (flow cytometry); type: in vivo, cynomolgus monkeys
# Method: A CD40 antibody (21.4.1) was administered intravenously at various doses (1 mg/kg n=4, 3 mg/kg n=4, 5 mg/kg n=2 and 10 mg/kg n=2) to cynomolgus monkeys. Heparinized blood was drawn from the monkeys at various time points pre- and postdose. The blood was aliquoted and stained. Data were acquired using a Becton Dickinson FACSCalibur and analyzed with CellQuest software. Results were calculated as fold increases in median fluorescence intensity as compared to pre-dose values.
# [5] = test system: CD40(+) Raji B cell lymphoma; experiment: CD40(+) Raji B cell lymphoma growth in SCID-beige mice; type: in vivo, human tumor in SCID-beige mice
# Method: SCID-beige mice were injected subcutaneously with the CD40(+) Raji B cell lymphoma (ATCC CCL-86) (SC) followed by a single dose of 21.4.1 (IP) at the time of tumor injection. Some animals were also injected with human T cells and DC. Tumor growth was assessed on Day 21.
# [6] = 0.3 mg/kg IV every other day, Day 1
# [7] = 0.3 mg/kg IV every other day, Day 9
# [8] = 1.0 mg/kg IV every other day, Day 1
# [9] = 1.0 mg/kg IV every other day, Day 9
# [10] = 10 mg/kg IV every other day, Day 1
# [11] = 10 mg/kg IV every other day, Day 9
substance,measurement,setting,value
21.4.1: human agonist anti-CD40 antibody; amino acid sequences SEQ ID NOs:5-8; hybridoma deposit PTA-3605,AUC(0-24),[1]; [6],47.7 ± 15.4 µg·h/mL
same,Cmax,[1]; [6],4.67 ± 1.71 µg/mL
same,Tmax,[1]; [6],1.9 ± 2.8 h
same,AUC(0-24),[1]; [7],55.6 ± 47.1 µg·h/mL
same,Cmax,[1]; [7],7.4 ± 2.9 µg/mL
same,Tmax,[1]; [7],0.5 ± 0.0 h
same,AUC(0-24),[1]; [8],387 ± 59 µg·h/mL
same,Cmax,[1]; [8],26.7 ± 5.1 µg/mL
same,Tmax,[1]; [8],0.5 ± 0.0 h
same,AUC(0-24),[1]; [9],219 ± 151 µg·h/mL
same,Cmax,[1]; [9],12.3 ± 9.1 µg/mL
same,Tmax,[1]; [9],1.9 ± 2.8 h
same,AUC(0-24),[1]; [10],4130 ± 600 µg·h/mL
same,Cmax,[1]; [10],226 ± 29 µg/mL
same,Tmax,[1]; [10],1.9 ± 2.8 h
same,AUC(0-24),[1]; [11],11400 ± 2100 µg·h/mL
same,Cmax,[1]; [11],577 ± 163 µg/mL
same,Tmax,[1]; [11],3.3 ± 3.2 h
same,increase of mean AUG(0-24) from Day 1 to Day 9,[1]; 10 mg/kg dose group,2.8 fold
same,increase of mean Cmax from Day 1 to Day 9,[1]; 10 mg/kg dose group,2.6 fold
same,Cmax serum concentration,[2]; corresponding to 0.001 mg/kg single IP,0.01 µg/mL
same,Cmax serum concentration,[2]; corresponding to 0.005 mg/kg single IP,0.05 µg/mL
same,Cmax serum concentration,[2]; corresponding to 0.02 mg/kg single IP,0.2 µg/mL
same,mortality induced by systemically administered tumor cell line,B cell lymphoma Daudi,prevented mortality
same,"proliferation of lymph node cells in response to tumor antigen, enhancement",[3],3-4 fold
same,duration of exposure of ≧0.1 μg/mL,[4],4 days
same,"volume of distribution at steady state, mean of different doses",[4]; iv,0.0575 L/kg
same,AUC(0-∞),"[4]; iv, 1 mg/kg",298 µg·h/mL
same,CL,"[4]; iv, 1 mg/kg",3.81 mL/h/kg
same,Cmax,"[4]; iv, 1 mg/kg",~20 µg/mL
same,Vdss,"[4]; iv, 1 mg/kg",0.0757 L/kg
same,t1/2,"[4]; iv, 1 mg/kg",18 h
same,AUC(0-∞),"[4]; iv, 3 mg/kg",2460 µg·h/mL
same,CL,"[4]; iv, 3 mg/kg",1.28 mL/h/kg
same,Vdss,"[4]; iv, 3 mg/kg",0.0459 L/kg
same,t1/2,"[4]; iv, 3 mg/kg",33.6 h
same,AUC(0-∞),"[4]; iv, 5 mg/kg",4790 µg·h/mL
same,CL,"[4]; iv, 5 mg/kg",1.04 mL/h/kg
same,Vdss,"[4]; iv, 5 mg/kg",0.0488 L/kg
same,t1/2,"[4]; iv, 5 mg/kg",33.6 h
same,AUC(0-∞),"[4]; iv, 10 mg/kg",12500 µg·h/mL
same,CL,"[4]; iv, 10 mg/kg",0.798 mL/h/kg
same,Vdss,"[4]; iv, 10 mg/kg",0.0529 L/kg
same,"apparent mean elimination half-life, range over doses","[4]; iv, 10 mg/kg",18 to 48 h
same,"systemic clearance, range over doses","[4]; iv, 10 mg/kg",0.798 to 3.81 mL/h/kg
same,t1/2,"[4]; iv, 10 mg/kg",48 h
same,"volume of distribution at steady state, range over doses","[4]; iv, 10 mg/kg",0.0459 to 0.0757 L/kg
same,"CD23 expression on B-cells, increase vs pre-dose","cynomolgus B-cells; 24 hours after dosing, 3 mg/kg and 10 mg/kg IV",≥ 20 fold
same,dose producing a saturating pharmacodynamic response in cynomolgus B-cells,"cynomolgus B-cells; IV, MHC Class II and CD23 on CD20+ cells",1 mg/kg
same,CD71 (transferrin receptor) level,cynomolgus B-cells; after IV dosing,moderate upregulation
same,CD80 expression,cynomolgus B-cells; after IV dosing,did not change significantly
same,CD86 costimulatory molecule level,cynomolgus B-cells; after IV dosing,moderate upregulation
same,"upregulation of both surface markers (MHC Class II, CD23) persisted, increase",cynomolgus B-cells; while 21.4.1 levels remained above 1 μg/ml,≥ 2 fold
same,anti-tumor activity against CD40(+) tumors when immune cells were present,[5]; Raji,enhanced
same,amount necessary to cause a 50% inhibition of tumor growth,"[5]; Raji co-injected with immune cells (human T cells and DC), single IP dose, Day 21",0.001 mg/kg
same,amount to cause a 50% inhibition of tumor growth (IC50),"[5]; Raji in the absence of immune cells, single IP dose, Day 21",0.02 mg/kg
same,decrease of the 50% inhibitory amount when immune cells co-injected,"[5]; Raji, with vs without immune cells",20 fold
